The values that follow come from publication PMC9561264, “Direct hOGG1-Myc interactions inhibit hOGG1 catalytic activity and recruit Myc to its promoters under oxidative stress”.

Series [1] deals with T1, hOGG1 C28A (human, UniProt O15527 1-345, C28A). Put plainly: fluorescence polarisation; reducing; FP at 25°C with 5 nM labelled DNA; EMSA room temp 30 min, 15% native PAGE 0.5x TBE 4°C; interaction buffer 20 mM Tris-HCl pH 7.6, 200 mM NaCl (Fig. S12); reducing (5 mM DTT in EMSA) or oxidising (pre-oxidised hOGG1). To be noted: protein: recombinant; tags: N-terminal His6 (removed where required); label: 5' AF647 (FP) or Cy3 (EMSA) on bottom strand; blunt. In general terms: Polarisation of emitted light reports the rotation of a fluorescent probe.
T1 sequence (O15527 whole entry C28A): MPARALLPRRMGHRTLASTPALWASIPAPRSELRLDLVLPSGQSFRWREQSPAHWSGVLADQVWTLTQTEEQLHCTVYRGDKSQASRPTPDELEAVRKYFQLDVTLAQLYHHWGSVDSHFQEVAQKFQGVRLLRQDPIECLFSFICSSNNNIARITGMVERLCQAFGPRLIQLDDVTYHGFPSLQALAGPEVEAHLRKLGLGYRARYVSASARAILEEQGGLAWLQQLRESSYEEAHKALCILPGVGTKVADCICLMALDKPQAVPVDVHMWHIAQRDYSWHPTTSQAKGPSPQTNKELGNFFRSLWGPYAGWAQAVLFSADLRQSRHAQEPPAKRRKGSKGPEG

The target in series [2] is hOGG1 C253A (human, UniProt O15527 1-345, C253A). The series is described as above. The note with it: protein: recombinant; tags: N-terminal His6 (removed where required); label: 5' AF647 (FP) or Cy3 (EMSA) on bottom strand; blunt. (Mobility shift assays separate free from complexed probe on a gel.)
Sequence of hOGG1 C253A (O15527 whole entry C253A): as the sequence (O15527 whole entry C28A) above, with A28C, C253A counted along it
The target in series [3] is T2, hOGG1 K249Q (human, UniProt O15527 1-345, K249Q). The description is as above. To be noted: protein: recombinant; tags: N-terminal His6 (removed where required); label: 5' AF647 (FP) or Cy3 (EMSA) on bottom strand; blunt.
T2 sequence (O15527 whole entry K249Q): as the sequence (O15527 whole entry C28A) above, with A28C, K249Q counted along it
In series [4] the target is T1, hOGG1 C28A. The series can be described thus: fluorescence polarisation; oxidising; FP at 25°C with 5 nM labelled DNA; EMSA room temp 30 min, 15% native PAGE 0.5x TBE 4°C; interaction buffer 20 mM Tris-HCl pH 7.6, 200 mM NaCl (Fig. S12); reducing (5 mM DTT in EMSA) or oxidising (pre-oxidised hOGG1). The note with it: protein: recombinant; tags: N-terminal His6 (removed where required); label: 5' AF647 (FP) or Cy3 (EMSA) on bottom strand; blunt.

The target of series [5] is T2, hOGG1 K249Q. The description is as above. To be noted: protein: recombinant; tags: N-terminal His6 (removed where required); label: 5' AF647 (FP) or Cy3 (EMSA) on bottom strand; blunt.
Series [6] has as its target T3, hOGG1 wild type;c-Myc (human;human?, UniProt O15527;P01106 1-345;16-454, |). Put plainly: EMSA; 300 nM each; oxidising and reducing (less stable reducing); FP at 25°C with 5 nM labelled DNA; EMSA room temp 30 min, 15% native PAGE 0.5x TBE 4°C; interaction buffer 20 mM Tris-HCl pH 7.6, 200 mM NaCl (Fig. S12); reducing (5 mM DTT in EMSA) or oxidising (pre-oxidised hOGG1). To be noted: protein: recombinant;commercial; tags: N-terminal His6 (removed by protease where required);GST; quantum dot in E-box AFM; label: 5' AF647 (FP) or Cy3 (EMSA) on bottom strand; blunt.

In series [7] the target is T3, hOGG1 wild type;c-Myc. The series can be described thus: EMSA; less stable under reducing conditions; FP at 25°C with 5 nM labelled DNA; EMSA room temp 30 min, 15% native PAGE 0.5x TBE 4°C; interaction buffer 20 mM Tris-HCl pH 7.6, 200 mM NaCl (Fig. S12); reducing (5 mM DTT in EMSA) or oxidising (pre-oxidised hOGG1). To be noted: protein: recombinant;commercial; tags: N-terminal His6 (removed by protease where required);GST; quantum dot in E-box AFM; label: 5' AF647 (FP) or Cy3 (EMSA) on bottom strand; blunt.

T3 sequence (O15527 whole entry, chain 1 of 2): as the sequence (O15527 whole entry C28A) above, with A28C counted along it
T3 sequence (P01106 16-454, chain 2 of 2): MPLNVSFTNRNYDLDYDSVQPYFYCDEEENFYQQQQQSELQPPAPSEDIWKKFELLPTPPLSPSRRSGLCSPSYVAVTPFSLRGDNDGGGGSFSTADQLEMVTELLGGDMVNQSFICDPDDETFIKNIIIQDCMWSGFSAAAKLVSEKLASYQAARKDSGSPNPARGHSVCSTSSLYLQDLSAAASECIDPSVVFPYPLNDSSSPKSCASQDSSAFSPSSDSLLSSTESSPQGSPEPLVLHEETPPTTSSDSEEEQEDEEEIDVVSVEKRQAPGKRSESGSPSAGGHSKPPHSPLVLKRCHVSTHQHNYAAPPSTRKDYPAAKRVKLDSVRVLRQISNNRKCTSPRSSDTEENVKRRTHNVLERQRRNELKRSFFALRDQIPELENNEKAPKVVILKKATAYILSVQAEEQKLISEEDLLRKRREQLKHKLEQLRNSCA

B1: oxoG 48 bp (EMSA/FP) (dsDNA)
DNA 1: GCATGCCTCGAGTCTAGAGGTACCAGATCTGATCCTCTAGAGTCGACC
DNA 2: GGTCGACTCTAGAGGATCAGATCTGGTACCTCTAGACTCGAGGCATGC
modifications: 8-oxoguanine at position 10 of strand 1 (written G)
With B1, the Kd in series [1] was 65 ± 8 nM; in series [2] it was 99 ± 24 nM; in series [3], 42 ± 3 nM; in series [4], 61 ± 11 nM; in series [5] it was 95 ± 5 nM. Moreover, the binding result in series [6] is “binds”.

B2: undamaged (nsp) 48 bp (dsDNA)
DNA 1: B1 DNA 1
DNA 2: B1 DNA 2
With B2, the binding result in series [7] is “binds”.

In general, Kd refers to the constant that tells how readily two partners part at equilibrium.
